Source: article PMC1540706, “Role of the AP2 β-Appendage Hub in Recruiting Partners for Clathrin-Coated Vesicle Assembly” (PLoS Biology, 2006)

B1: human β2-appendage (700–937) used for ITC (domain or fragment, UniProt P63010 700-937, looked up)
chain: IGMAPGGYVAPKAVWLPAVKAKGLEISGTFTHRQGHIYMEMNFTNKALQHMTDFAIQFNKNSFGVIPSTPLAIHTPLMPNQSIDVSLPLNTLGPVMKMEPLNNLQVAVKNNIDVFYFSCLIPLNVLFVEDGKMERQVFLATWKDIPNENELQFQIKECHLNADTVSSKLQNNNVYTIAKRNVEGQDMLYQSLKLTNGIWILAELRIQPGNPNYTLSLKCRAPEVSQYIYQVYDSILKN
notes: AP2 β2-adaptin appendage domain, human, residues 700-937; also called wild-type β2-appendage; β-appendage
B2: 6× His human Eps15-MD (530–791) (domain or fragment, UniProt P42566 530-791, looked up)
chain: STSSSETANLNEHVEGQSNLESEPIHQESPARSSPELLPSGVTDENEVTTAVTEKVCSELDNNRHSKEEDPFNVDSSSLTGPVADTNLDFFQSDPFVGSDPFKDDPFGKIDPFGGDPFKGSDPFASDCFFRQSTDPFATSSTDPFSAANNSSITSVETLKHNDPFAPGGTVVAASDSATDPFASVFGNESFGGGFADFSTLSKVNNEDPFRSATSSSVSNVVITKNVFEETSVKSEDEPPALPPKIGTPTRPCPLPPGKRSI
notes: Eps15 motif domain, human, residues 530-791 (STSSSE…GKRSI); The His-tagged form is named for SPR; also called 6× His hEps15-MD; motif domain of Eps15; source: recombinant (pET28c), purified

Columns and labels:
Assay in all cases: ITC; VP-ITC; 100 mM HEPES, 50 mM NaCl, 2 mM DTT pH 7.4 at 10 °C; peptides or proteins injected from the syringe into the cell
Conditions in all cases: both partners purified
[1] = target: B2
[2] = target: B1
[3] = target: T1, human β2-appendage (700–937) R879A used for ITC (human, UniProt P63010 700-937, R879A)
T1 construct: AP2 β2-adaptin appendage domain, human, residues 700-937; also called R879A mutant of the β-appendage
T1 sequence (looked up): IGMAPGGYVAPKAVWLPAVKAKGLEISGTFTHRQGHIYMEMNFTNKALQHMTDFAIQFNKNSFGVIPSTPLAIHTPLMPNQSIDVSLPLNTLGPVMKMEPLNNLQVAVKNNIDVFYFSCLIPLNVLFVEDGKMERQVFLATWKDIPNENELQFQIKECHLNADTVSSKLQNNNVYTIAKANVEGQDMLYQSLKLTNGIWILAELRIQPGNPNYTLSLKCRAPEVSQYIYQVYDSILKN

Binder: B1
- Kd [1]: ~20 µM

Binder: B2
- stoichiometry N [2]: 2

B3: Eps15 P-short peptide (peptide)
peptide: SFGDGFADFSTL
notes: peptide from Eps15; also called Eps15 peptide; source: synthetic peptide, bought: Institute of Biomolecular Sciences (University of Southampton)
- Kd [2]: 46 µM

B4: β-arrestin P-long peptide (peptide)
peptide: DDDIVFEDFARQRLKGMKDD
notes: peptide from the C-terminus of β-arrestin; also called β-arrestin peptide; arrestin peptide; source: synthetic peptide, bought: Institute of Biomolecular Sciences (University of Southampton)
- Kd [2]: ~2 µM
- fold stronger than with the wild-type appendage [3]: 10 fold
